B1: TFE3 (parent)
chain: FPSDHLGDLGDPFHLGLEDILMEE
B2: PLAGL1 (parent)
chain: LELGSTEVLLDHLKAHAEEKPPSG

Variants of: B1
Experiment: protein stability index of a GFP-peptide fusion (GPS, HEK-293T) (PSI 1-6); higher = more stable
Settings: c terminus: a fixed tail appended
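Further: lentivirally expressed fusions sorted by FACS into six bins by GFP to DsRed ratio, PSI derived from sequencing read proportions per bin multiplied by bin number.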

Compared with FPSDHLGDLGDPFHLGLEDILMNE, FPSDHLGDLGDPFHLGLEDILMPE is higher in protein stability index: 2.65 for the first, 2.76 for the second.

Compared with FPSDHLGDLGDPFHLGLEDILMQE, FPSDHLGDLGDPFHLGLEDILMRE is lower in protein stability index: 3.26 for the first, 2.95 for the second.

Compared with FPSDHLGDLGDPFHLGLEDILMSE, FPSDHLGDLGDPFHLGLEDILMTE is higher in protein stability index: 2.81 for the first, 3.24 for the second.

Going from FPSDHLGDLGDPFHLGLEDILMVE to FPSDHLGDLGDPFHLGLEDILMWE, the protein stability index falls from 3.85 to 2.56.

Compared with FPSDHLGDLGDPFHLGLEDILMYE, FPSDHLGDLGDPFHLGLEDILMEA is higher in protein stability index: 2.3 for the first, 2.64 for the second.

Compared with FPSDHLGDLGDPFHLGLEDILMEC, FPSDHLGDLGDPFHLGLEDILMED is higher in protein stability index: 2.96 for the first, 3.54 for the second.

First: FPSDHLGDLGDPFHLGLEDILMEF
Second: FPSDHLGDLGDPFHLGLEDILMEG
The protein stability index of the first is lower: 1.92 for the first, 2.91 for the second.

Going from FPSDHLGDLGDPFHLGLEDILMEH to FPSDHLGDLGDPFHLGLEDILMEI, the protein stability index falls from 2.75 to 1.97.

Going from FPSDHLGDLGDPFHLGLEDILMEK to FPSDHLGDLGDPFHLGLEDILMEL, the protein stability index falls from 2.59 to 1.97.

First: FPSDHLGDLGDPFHLGLEDILMEM
Second: FPSDHLGDLGDPFHLGLEDILMEN
The protein stability index of the first is lower: 2.62 for the first, 3.49 for the second.

Going from FPSDHLGDLGDPFHLGLEDILMEP to FPSDHLGDLGDPFHLGLEDILMEQ, the protein stability index rises from 2.77 to 2.96.

First: FPSDHLGDLGDPFHLGLEDILMER
Second: FPSDHLGDLGDPFHLGLEDILMES
The protein stability index of the first is lower: 2.87 for the first, 2.91 for the second.

Compared with FPSDHLGDLGDPFHLGLEDILMET, FPSDHLGDLGDPFHLGLEDILMEV is lower in protein stability index: 2.95 for the first, 1.59 for the second.

Compared with FPSDHLGDLGDPFHLGLEDILMEW, FPSDHLGDLGDPFHLGLEDILMEY is higher in protein stability index: 1.8 for the first, 2.35 for the second.

Variants of: B2
Experiment: as above
Settings: c terminus: a fixed tail appended

Compared with AELGSTEVLLDHLKAHAEEKPPSG, CELGSTEVLLDHLKAHAEEKPPSG is lower in protein stability index: 5.43 for the first, 4.61 for the second.

Going from DELGSTEVLLDHLKAHAEEKPPSG to EELGSTEVLLDHLKAHAEEKPPSG, the protein stability index falls from 5.24 to 5.02.

First: FELGSTEVLLDHLKAHAEEKPPSG
Second: GELGSTEVLLDHLKAHAEEKPPSG
The protein stability index of the first is higher: 4.48 for the first, 4.44 for the second.

First: HELGSTEVLLDHLKAHAEEKPPSG
Second: IELGSTEVLLDHLKAHAEEKPPSG
The protein stability index of the first is higher: 5.36 for the first, 3.55 for the second.

Going from KELGSTEVLLDHLKAHAEEKPPSG to MELGSTEVLLDHLKAHAEEKPPSG, the protein stability index falls from 5.53 to 4.59.

Compared with NELGSTEVLLDHLKAHAEEKPPSG, PELGSTEVLLDHLKAHAEEKPPSG is lower in protein stability index: 5.35 for the first, 5.23 for the second.

First: QELGSTEVLLDHLKAHAEEKPPSG
Second: RELGSTEVLLDHLKAHAEEKPPSG
The protein stability index of the first is lower: 4.99 for the first, 5.29 for the second.

First: SELGSTEVLLDHLKAHAEEKPPSG
Second: TELGSTEVLLDHLKAHAEEKPPSG
The protein stability index of the first is higher: 4.98 for the first, 4.91 for the second.

First: VELGSTEVLLDHLKAHAEEKPPSG
Second: WELGSTEVLLDHLKAHAEEKPPSG
The protein stability index of the first is higher: 4.91 for the first, 4.28 for the second.

Going from YELGSTEVLLDHLKAHAEEKPPSG to LALGSTEVLLDHLKAHAEEKPPSG, the protein stability index falls from 4.38 to 3.53.

Compared with LCLGSTEVLLDHLKAHAEEKPPSG, LDLGSTEVLLDHLKAHAEEKPPSG is higher in protein stability index: 3.84 for the first, 4.03 for the second.

Compared with LFLGSTEVLLDHLKAHAEEKPPSG, LGLGSTEVLLDHLKAHAEEKPPSG is higher in protein stability index: 2.15 for the first, 4.81 for the second.

First: LHLGSTEVLLDHLKAHAEEKPPSG
Second: LILGSTEVLLDHLKAHAEEKPPSG
The protein stability index of the first is higher: 4.03 for the first, 3.18 for the second.

Going from LKLGSTEVLLDHLKAHAEEKPPSG to LLLGSTEVLLDHLKAHAEEKPPSG, the protein stability index falls from 4.23 to 2.27.

Going from LMLGSTEVLLDHLKAHAEEKPPSG to LNLGSTEVLLDHLKAHAEEKPPSG, the protein stability index rises from 2.81 to 4.69.

Going from LPLGSTEVLLDHLKAHAEEKPPSG to LQLGSTEVLLDHLKAHAEEKPPSG, the protein stability index falls from 4.67 to 4.19.

Going from LRLGSTEVLLDHLKAHAEEKPPSG to LSLGSTEVLLDHLKAHAEEKPPSG, the protein stability index falls from 3.4 to 3.37.

Going from LTLGSTEVLLDHLKAHAEEKPPSG to LVLGSTEVLLDHLKAHAEEKPPSG, the protein stability index falls from 4.16 to 2.49.

Compared with LWLGSTEVLLDHLKAHAEEKPPSG, LYLGSTEVLLDHLKAHAEEKPPSG is higher in protein stability index: 2 for the first, 2.34 for the second.

Compared with LEAGSTEVLLDHLKAHAEEKPPSG, LECGSTEVLLDHLKAHAEEKPPSG is higher in protein stability index: 5.17 for the first, 5.21 for the second.

Compared with LEDGSTEVLLDHLKAHAEEKPPSG, LEEGSTEVLLDHLKAHAEEKPPSG is higher in protein stability index: 5.79 for the first, 5.8 for the second.

First: LEFGSTEVLLDHLKAHAEEKPPSG
Second: LEGGSTEVLLDHLKAHAEEKPPSG
The protein stability index of the first is lower: 4.33 for the first, 5.74 for the second.

Compared with LEHGSTEVLLDHLKAHAEEKPPSG, LEIGSTEVLLDHLKAHAEEKPPSG is lower in protein stability index: 5.4 for the first, 4.74 for the second.

Compared with LEKGSTEVLLDHLKAHAEEKPPSG, LEMGSTEVLLDHLKAHAEEKPPSG is lower in protein stability index: 5.19 for the first, 4.09 for the second.

First: LENGSTEVLLDHLKAHAEEKPPSG
Second: LEPGSTEVLLDHLKAHAEEKPPSG
The protein stability index of the first is lower: 5.67 for the first, 5.88 for the second.

Going from LEQGSTEVLLDHLKAHAEEKPPSG to LERGSTEVLLDHLKAHAEEKPPSG, the protein stability index falls from 5.55 to 5.54.

Compared with LESGSTEVLLDHLKAHAEEKPPSG, LETGSTEVLLDHLKAHAEEKPPSG is lower in protein stability index: 5.72 for the first, 5.18 for the second.

First: LEVGSTEVLLDHLKAHAEEKPPSG
Second: LEWGSTEVLLDHLKAHAEEKPPSG
The protein stability index of the first is higher: 4.9 for the first, 4.49 for the second.

First: LEYGSTEVLLDHLKAHAEEKPPSG
Second: LELASTEVLLDHLKAHAEEKPPSG
The protein stability index of the first is higher: 5.45 for the first, 2.89 for the second.

Going from LELCSTEVLLDHLKAHAEEKPPSG to LELDSTEVLLDHLKAHAEEKPPSG, the protein stability index rises from 3.54 to 5.28.

First: LELESTEVLLDHLKAHAEEKPPSG
Second: LELFSTEVLLDHLKAHAEEKPPSG
The protein stability index of the first is higher: 3.85 for the first, 2.59 for the second.

First: LELHSTEVLLDHLKAHAEEKPPSG
Second: LELISTEVLLDHLKAHAEEKPPSG
The protein stability index of the first is higher: 3.83 for the first, 2.58 for the second.

First: LELKSTEVLLDHLKAHAEEKPPSG
Second: LELLSTEVLLDHLKAHAEEKPPSG
The protein stability index of the first is higher: 4.3 for the first, 2.77 for the second.

From the supplement of paper PMC10567573
